# Test results reported in the supplement of paper PMC12764529.
# ± gives the half width of the 95% confidence interval.
# Assay: folding stability dG unfold (combined trypsin and chymotrypsin); higher = more stable
# How it was run: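 Sequencing followed digestion of designed mini-proteins with trypsin and chymotrypsin, each at 11 concentrations in threefold dilutions together with a no-protease condition. The mini-proteins were under 80 residues, had no cysteine, sat in a PA-tagged cDNA display construct, and were kept only if AlphaFold2 dimer inter-PAE was above 15. From the counts, Bayesian fitting gave K50, and unfolding free energy was derived against a sequence-predicted unfolded-state K50 and a shared folded-state K50, per protease or combined.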
row,Sequence,folding stability dG unfold
1,SAGGSPPNITYELTFPDGTVYTDPLPGKSLEELKEYVKSLNFTNVEVTVYEESSEVSTYKVTIPPNESAGGS [r16_700_JUSTAS],0.437 ± 0.12 kcal/mol
2,SAGGSAKIEIPIMIPMPPGQEFDLKIRIPNLWKIKIERIYVSPDPGWIMFRIEIEPVAPPNDPEQMSAGGSA [r15_994_TrROS],3.34 ± 0.21 kcal/mol
3,SAGSGPGETKLVEEVEIDPVGPIKDSNGNPRPIKVVTKKLVEVTILEDGTVEKKVLETVVETLPPDVPLSAG [r5_132_JUSTAS],-0.662 ± 0.51 kcal/mol
4,SAGGSAGMPPDEPVVKTTVIPTSTAVKDAAGNPLTPEELAAAVKAAYPDVEVSFGPGNTLTITLTRSAGGSA [r15_645_JUSTAS],1.25 ± 0.091 kcal/mol
5,SAGGSAGGKKPPKIKVIYIKADSPEALKKLKIKAKPGDTILIYVDGKLYRLTVIDGKIKIEELPSAGGSAGG [r6_550_TrROS_Hall],3.35 ± 0.14 kcal/mol
6,SAGGSAGGSSSATLAADETATLRFRVTLTFGSGVRSGTADLSGSVSATVEVDVEIEVRNLADDSAGGSAGGS [r12_668_TrMRF],4.24 ± 0.07 kcal/mol
7,SAGGSAGGPIVLKFPSPEDLEKAIEIATAHGYEIELNPESGTLVINATGPMLEEFKKIPGLEISSAGGSAGG [r6_724_TrMRF],2.72 ± 0.092 kcal/mol
8,SAGGSAGGSAGGSYEVKEETEPKTGLKITTTTLPDGTIETTTINPATGEVTTTTSSPLESAGGSAGGSAGGS [r10_127_JUSTAS],1.73 ± 0.15 kcal/mol
9,SMPVGVEELAERLAEEIEKELSEKTGVPVKVEKITVEEDPATGTVTVTITLYLPDGKKIREESLTVPVLESA [r9_60_JUSTAS],1.53 ± 0.065 kcal/mol
10,SAGGRYWKLTTPPDRPLRLVIEPVPLEDTPEEYGSRLYIPNTGKVYYFPLKYAQEILDLPWIERLEPVSAGG [r19_302_TrMRF],0.664 ± 0.11 kcal/mol
11,SSPLINILTVEVTAETPSGGSFSKTFTFPASKYTEEEIREKIKEEYPDLTDIKITPKVTKIPPGPKILLASA [r9_841_JUSTAS],1.76 ± 0.18 kcal/mol
12,SAGGSAGGMTVTFTLPATAPENALENVTATVTYNGKTYLVKITATPVPDGPFVVVTAELVEYDPSAGGSAGG [r6_415_TrMRF],3.34 ± 0.17 kcal/mol
13,SAGGSAGGMTITLRIKITNPDGEEKEIEVELELPEELKGKTLEELAAELAKALLPPGAKVEVEPSAGGSAGG [r6_821_TrROS_Hall],2.72 ± 0.14 kcal/mol
14,SAGGSAGGSAGGSAGVIVSLSPAPPSADTVVELPKGVTVTVTTVNGERVLTTLVPEALLSAGGSAGGSAGGS [r10_355_JUSTAS],0.217 ± 0.048 kcal/mol
15,SAGGSAGGSAAEASVVTFPGDLTAEVTKLPDGSYAVTVTFPENPGATATLTRTPDSVTVTPSAGGSAGGSAG [r3_170_JUSTAS],-0.342 ± 0.17 kcal/mol
16,SASKRFVFPVLGDEQTITVDVPEDYYVRITVFFPDGSEPILIPPNEKVTITVPRKDAFVVIEVFPKNEESAG [r14_882_TrMRF],2.48 ± 0.067 kcal/mol

row,Sequence,folding stability dG unfold
1,SAGGSMERTVELTYTFKDKPIKITITVTTDPETGTVTVPIEIETEDEKIKEPALEKAKELAEELLASAGGSA [r2_259_JUSTAS],0.301 ± 0.12 kcal/mol
2,SAGGSAGGSAKPLKKLVLLLKVKGPFEEVEKILNEEFGVKKIVAFKDPETDEVYALIYLGDPSAGGSAGGSA [r18_275_TrMRF],2.62 ± 0.085 kcal/mol
3,SMKVIIIERPDESGVPVVIVLPEEEALELYRKLFNVPMSVEEFAEKLKELNPNVKVEVVPLEEVSEEVLLSA [r9_1085_JUSTAS],2.35 ± 0.18 kcal/mol
4,SAGGSASMKIRVYTISLYRPDGESVRDVPIVVPENEPDVDPEALAKAIADELGLVKVEISEEIVPLSAGGSA [r15_333_JUSTAS],1.14 ± 0.18 kcal/mol
5,SAGGSAGGWIPPEMARNIAKTLRDKGWPVEDIEVEREPNGWVTVDVDIQYPDGKKRKYPIQIPYSAGGSAGG [r6_762_TrROS],0.0547 ± 0.17 kcal/mol
6,SAGGSAMMLAKVKIELPNGEIVEIPIEFESLEELEEKIKEKARELFPDIPIEDIKILDIELYSLEESAGGSA [r15_220_TrMRF],5.31 ± 0.34 kcal/mol
7,SAGGYYIEFRNPNNGNTVTIPPELIEAIKSGDPDKLKKLPPWFRDALDNIDRVEIQPPPPVPPVPPGKSAGG [r13_233_TrROS],0.887 ± 0.053 kcal/mol
8,SAGVTLKLPFVLPGGLGVDEIEVRSLPGGRVEARLRLKGDPRYYVVARFYVLPGGRLVITDVRVRREDESAG [r14_705_TrMRF],3.54 ± 0.082 kcal/mol
9,SAGGDKKKVKIHIFPPPGMPMDNFANYIQDQLGWDRNNIKVEPMDSPQEAERRAEKNGKPEIVIFFRSAGGS [r8_245_TrROS],0.456 ± 0.32 kcal/mol
10,SAGGSAPDDVEVEIKNIHYNPNWGYIMITIKVDGPVDSIEIELPNGWEISVMRDKDGTMTIMFPFPSAGGSA [r15_736_TrROS],3.15 ± 0.32 kcal/mol
11,SAGGMSVSITVTVTPTEVRVVENPTNGVNTAFTETTVTVTVNHPSSVSPEEKAALIAAVKAANPGAASAGGS [r8_306_JUSTAS],2.43 ± 0.49 kcal/mol
12,SEEIIKALEEAGYEVESIEYDEETKTVTITIYRKNKETGKIEKKTITIEVEPGMTEEELLALARELLEKESA [r9_184_TrROS_Hall],4.83 ± 0.66 kcal/mol
13,SAGGSAGGSAGEVVRVYPTPDGTTVTITPHPTTYTVTTTSPDGVPTTTPVSPAEVAALGLSAGGSAGGSAGG [r17_127_JUSTAS],-0.0994 ± 0.2 kcal/mol
14,SAGGKEVKIEIEEKDGKLVIKITVKTEEELKEEIKKLLEEEFGLEVEEVKVEKNKNGEVTIYVVIKKKSAGG [r13_158_TrROS_Hall],2.51 ± 0.44 kcal/mol
15,SAGGSAGGSPKVTTSTSSSVLGNGRLESTVSNPDLGVTTLTLTDPESDVVTTFTETAGSTTPAASAGGSAGG [r6_757_JUSTAS],0.606 ± 0.031 kcal/mol
16,SAGGWMTWEFELEDEDGKDIKIEVEQNPGNPWWRVKIEHKGGKPIPEIPIPADSPDDAIDQARDLLKSAGGS [r16_158_TrROS],-0.149 ± 0.33 kcal/mol
